# Data as given in patent publication US20240190987A1, “Engineered EpCam Binding Antibodies” (TigaTX, priority 2021, published 2024).
# T1: huEpCAM ECD Ag0065 (human) (UniProt P16422)
# T1 sequence: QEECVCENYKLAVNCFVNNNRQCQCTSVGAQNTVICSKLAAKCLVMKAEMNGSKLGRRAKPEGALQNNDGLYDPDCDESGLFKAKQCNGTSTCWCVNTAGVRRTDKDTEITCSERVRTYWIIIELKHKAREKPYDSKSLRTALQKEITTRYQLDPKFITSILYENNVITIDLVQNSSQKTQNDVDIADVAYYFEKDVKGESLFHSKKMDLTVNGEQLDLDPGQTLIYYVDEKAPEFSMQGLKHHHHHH
# Key:
# [1] = target: cyEpCAM ECD Ag0066 (cyno); assay: SPR single-cycle
# [2] = target: T1, huEpCAM ECD Ag0065 (human); assay: SPR single-cycle
# [3] = target: cyEpCAM ECD Ag0066 (cyno); assay: SPR multi-cycle
# [4] = target: T1, huEpCAM ECD Ag0065 (human); assay: SPR multi-cycle
# Ab0223 = assay: BLI 1-pt +indinavir
# Chain of Ab0223 (VH, as listed by the source limits assumed, form in doubt, chain 1 of 2): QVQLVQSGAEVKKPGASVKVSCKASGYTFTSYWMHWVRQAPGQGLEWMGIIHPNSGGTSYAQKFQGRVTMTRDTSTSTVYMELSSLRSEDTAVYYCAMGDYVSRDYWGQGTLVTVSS
# Chain of Ab0223 (VL, as listed by the source limits assumed, form in doubt, chain 2 of 2): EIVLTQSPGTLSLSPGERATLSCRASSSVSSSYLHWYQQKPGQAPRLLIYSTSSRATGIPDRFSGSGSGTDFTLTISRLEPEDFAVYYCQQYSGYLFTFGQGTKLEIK
Binder,Kd [1],Kd [2],Kd (Ab0223),other results
"Ab1011 (antibody, V domains shown) VH: EVQLVESGGGLVQPGGSLRLSCAASGFTFSNYWMNWVRQAPGKGLEWVAQIRVKSENFATHYADSVKGRFTISRDDSKSTVYLQMNSLRAEDTAVYYCTRYDGFSWGQGTLVTVSS VL: DIQMTQSPSSLSASVGDRVTITCSASSSVSSGNFHWYQQKPGKAPKLLIYRTSNLASGVPSRFSGSGSGTDYTLTISSLQPEDFATYYCQQWSGYPYTFGQGTKVEIKR",9.9 nM,–,–,–
"Ab1016 (antibody, V domains shown) VH: EVQLVESGGGLVQPGGSLRLSCAASGFTFSNYYMNWVRQAPGKGLEWVAQIRVKSENFATHYADSVKGRFTISRDDSKSTVYLQMNSLRAEDTAVYYCTLYDGFSWGQGTLVTVSS VL: DIQMTQSPSSLSASVGDRVTITCSASSSVSSGNFHWYQQKPGKAPKLLIYRTSNLASGVPSRFSGSGSGTDYTLTISSLQPEDFATYYCQQWSGYPYTFGQGTKVEIK",7.7 nM,7.2 nM,–,–
"Ab1066 (antibody, V domains shown) VH: EVQLVESGGGLVQPGGSLRLSCAASGFTFSNYWMNWVRQAPGKGLEWVAQIRVKSENFATHYADSVKGRFTISRDDSKSTVYLQMNSLRAEDTAVYYCTLYDAFSWGQGTLVTVSS VL: DIQMTQSPSSLSASVGDRVTITCSASSSVSSGNFHWYQQKPGKAPKLLIYRTSNLASGVPSRFSGSGSGTDYTLTISSLQPEDFATYYCQQASGYPYTFGQGTKVEIK",–,–,–,Kd [3]: 3 nM; Kd [4]: 5.7 nM
"Ab1017 (antibody, V domains shown) VH: EVQLVESGGGLVQPGGSLRLSCAASGFTFSNYWMSWVRQAPGKGLEWVAQIRVKSENFATHYADSVKGRFTISRDDSKSTVYLQMNSLRAEDTAVYYCTLYDGFSWGQGTLVTVSS VL: DIQMTQSPSSLSASVGDRVTITCSASSSVSSGNFHWYQQKPGKAPKLLIYRTSNLASGVPSRFSGSGSGTDYTLTISSLQPEDFATYYCQQWSGYPYTFGQGTKVEIK",4.5 nM,7.6 nM,–,–
"Ab1012 (antibody, V domains shown) VH: EVQLVESGGGLVQPGGSLRLSCAASGFTFSSYWMNWVRQAPGKGLEWVAQIRVKSENFATHYADSVKGRFTISRDDSKSTVYLQMNSLRAEDTAVYYCTLYDGFSWGQGTLVTVSS VL: DIQMTQSPSSLSASVGDRVTITCSASSSVSSGNFHWYQQKPGKAPKLLIYRTSNLASGVPSRFSGSGSGTDYTLTISSLQPEDFATYYCQQWSGYPYTFGQGTKVEIK",6.2 nM,9.7 nM,–,–
"Ab1023 (antibody, V domains shown) VH: EVQLVESGGGLVQPGGSLRLSCAASGFTFSNYWMNWVRQAPGKGLEWVAQIRVKYENFATHYADSVKGRFTISRDDSKSTVYLQMNSLRAEDTAVYYCTLYDGFSWGQGTLVTVSS VL: DIQMTQSPSSLSASVGDRVTITCSASSSVSSGNFHWYQQKPGKAPKLLIYRTSNLASGVPSRFSGSGSGTDYTLTISSLQPEDFATYYCQQWSGYPYTFGQGTKVEIK",0.9 nM,2 nM,–,–
"Ab1018 (antibody, V domains shown) VH: EVQLVESGGGLVQPGGSLRLSCAASGFTFSNYWMNWVRQAPGKGLEWVAQIRVKSENFATHYADSVKGRFTISRDDSKSTVYLQMNSLRAEDTAVYYCTLYEGFSWGQGTLVTVSS VL: DIQMTQSPSSLSASVGDRVTITCSASSSVSSGNFHWYQQKPGKAPKLLIYRTSNLASGVPSRFSGSGSGTDYTLTISSLQPEDFATYYCQQWSGYPYTFGQGTKVEIK",2.1 nM,3 nM,–,Kd [3]: 1.6 nM; Kd [4]: 2.8 nM
"Ab1021 (antibody, V domains shown) VH: EVQLVESGGGLVQPGGSLRLSCAASGFTFSNYWMNWVRQSPGKGLEWVAQIRVKSENFATHYADSVKGRFTISRDDSKSTVYLQMNSLRAEDTAVYYCTLYDGFSWGQGTLVTVSS VL: DIQMTQSPSSLSASVGDRVTITCSASSSVSSGNFHWYQQKPGKAPKLLIYRTSNLASGVPSRFSGSGSGTDYTLTISSLQPEDFATYYCQQWSGYPYTFGQGTKVEIK",2.3 nM,3.1 nM,–,–
"Ab0935 (antibody, V domains shown) VH: EVQLVESGGGLVQPGGSLRLSCAASGFDFSSASIHWVRQAPGKGLEWVASISPYYGSTYYADSVKGRFTISADTSKNTAYLQMNSLRAEDTAVYYCARYYEWYKYDLYLGSLGFDYWGQGTLVTVSS VL: DIQMTQSPSSLSASVGDRVTITCRASQSVSSAVAWYQQKPGKAPKLLIYSASSLYSGVPSRFSGSRSGTDFTLTISSLQPEDFATYYCQQGGYSLITFGQGTKVEIK",–,–,230 nM,–
"Ab0946 (antibody, V domains shown) VH: EVQLVESGGGLVQPGGSLRLSCAASGFDFSSYSIHWVRQAPGKGLEWVASISPYYGSTYYADSVKGRFTISADTSKNTAYLQMNSLRAEDTAVYYCARYYEWYKYDLYLGSLAFDYWGQGTLVTVSS VL: DIQMTQSPSSLSASVGDRVTITCRASQSVSSAVAWYQQKPGKAPKLLIYSASSLYSGVPSRFSGSRSGTDFTLTISSLQPEDFATYYCQQGGYSLITFGQGTKVEIK",–,–,50 nM,–
"Ab0942 (antibody, V domains shown) VH: EVQLVESGGGLVQPGGSLRLSCAASGFDFSSYSIHWVRQAPGKGLEWVASISPYYGSTYYADSVKGRFTISADTSKNTAYLQMNSLRAEDTAVYYCARYYAWYKYDLYLGSLGFDYWGQGTLVTVSS VL: DIQMTQSPSSLSASVGDRVTITCRASQSVSSAVAWYQQKPGKAPKLLIYSASSLYSGVPSRFSGSRSGTDFTLTISSLQPEDFATYYCQQGGYSLITFGQGTKVEIK",–,–,210 nM,–
"Ab0938 (antibody, V domains shown) VH: EVQLVESGGGLVQPGGSLRLSCAASGFDFSSYSIHWVRQAPGKGLEWVASIAPYYGSTYYADSVKGRFTISADTSKNTAYLQMNSLRAEDTAVYYCARYYEWYKYDLYLGSLGFDYWGQGTLVTVSS VL: DIQMTQSPSSLSASVGDRVTITCRASQSVSSAVAWYQQKPGKAPKLLIYSASSLYSGVPSRFSGSRSGTDFTLTISSLQPEDFATYYCQQGGYSLITFGQGTKVEIK",–,–,310 nM,–
"Ab0944 (antibody, V domains shown) VH: EVQLVESGGGLVQPGGSLRLSCAASGFDFSSYSIHWVRQAPGKGLEWVASISPYYGSTYYADSVKGRFTISADTSKNTAYLQMNSLRAEDTAVYYCARYYEWYKYALYLGSLGFDYWGQGTLVTVSS VL: DIQMTQSPSSLSASVGDRVTITCRASQSVSSAVAWYQQKPGKAPKLLIYSASSLYSGVPSRFSGSRSGTDFTLTISSLQPEDFATYYCQQGGYSLITFGQGTKVEIK",–,–,7.1 nM,–
"Ab0947 (antibody, V domains shown) VH: EVQLVESGGGLVQPGGSLRLSCAASGFDFSSYSIHWVRQAPGKGLEWVASISPYYGSTYYADSVKGRFTISADTSKNTAYLQMNSLRAEDTAVYYCARYYEWYKYDLYLGSLGFAYWGQGTLVTVSS VL: DIQMTQSPSSLSASVGDRVTITCRASQSVSSAVAWYQQKPGKAPKLLIYSASSLYSGVPSRFSGSRSGTDFTLTISSLQPEDFATYYCQQGGYSLITFGQGTKVEIK",–,–,52 nM,–
"Ab0948 (antibody, V domains shown) VH: EVQLVESGGGLVQPGGSLRLSCAASGFDFSSYSIHWVRQAPGKGLEWVASISPYYGSTYYADSVKGRFTISADTSKNTAYLQMNSLRAEDTAVYYCARYYEWYKYDLYLGSLGFDAWGQGTLVTVSS VL: DIQMTQSPSSLSASVGDRVTITCRASQSVSSAVAWYQQKPGKAPKLLIYSASSLYSGVPSRFSGSRSGTDFTLTISSLQPEDFATYYCQQGGYSLITFGQGTKVEIK",–,–,7.3 nM,–
"Ab0939 (antibody, V domains shown) VH: EVQLVESGGGLVQPGGSLRLSCAASGFDFSSYSIHWVRQAPGKGLEWVASISAYYGSTYYADSVKGRFTISADTSKNTAYLQMNSLRAEDTAVYYCARYYEWYKYDLYLGSLGFDYWGQGTLVTVSS VL: DIQMTQSPSSLSASVGDRVTITCRASQSVSSAVAWYQQKPGKAPKLLIYSASSLYSGVPSRFSGSRSGTDFTLTISSLQPEDFATYYCQQGGYSLITFGQGTKVEIK",–,–,3.7 nM,–
"Ab0936 (antibody, V domains shown) VH: EVQLVESGGGLVQPGGSLRLSCAASGFDFSSYSIHWVRQAPGKGLEWVAAISPYYGSTYYADSVKGRFTISADTSKNTAYLQMNSLRAEDTAVYYCARYYEWYKYDLYLGSLGFDYWGQGTLVTVSS VL: DIQMTQSPSSLSASVGDRVTITCRASQSVSSAVAWYQQKPGKAPKLLIYSASSLYSGVPSRFSGSRSGTDFTLTISSLQPEDFATYYCQQGGYSLITFGQGTKVEIK",–,–,< 1 nM,–
"Ab0943 (antibody, V domains shown) VH: EVQLVESGGGLVQPGGSLRLSCAASGFDFSSYSIHWVRQAPGKGLEWVASISPYYGSTYYADSVKGRFTISADTSKNTAYLQMNSLRAEDTAVYYCARYYEWYAYDLYLGSLGFDYWGQGTLVTVSS VL: DIQMTQSPSSLSASVGDRVTITCRASQSVSSAVAWYQQKPGKAPKLLIYSASSLYSGVPSRFSGSRSGTDFTLTISSLQPEDFATYYCQQGGYSLITFGQGTKVEIK",–,–,130 nM,–
"Ab0941 (antibody, V domains shown) VH: EVQLVESGGGLVQPGGSLRLSCAASGFDFSSYSIHWVRQAPGKGLEWVASISPYYGATYYADSVKGRFTISADTSKNTAYLQMNSLRAEDTAVYYCARYYEWYKYDLYLGSLGFDYWGQGTLVTVSS VL: DIQMTQSPSSLSASVGDRVTITCRASQSVSSAVAWYQQKPGKAPKLLIYSASSLYSGVPSRFSGSRSGTDFTLTISSLQPEDFATYYCQQGGYSLITFGQGTKVEIK",–,–,3.7 nM,–
"Ab0940 (antibody, V domains shown) VH: EVQLVESGGGLVQPGGSLRLSCAASGFDFSSYSIHWVRQAPGKGLEWVASISPYYASTYYADSVKGRFTISADTSKNTAYLQMNSLRAEDTAVYYCARYYEWYKYDLYLGSLGFDYWGQGTLVTVSS VL: DIQMTQSPSSLSASVGDRVTITCRASQSVSSAVAWYQQKPGKAPKLLIYSASSLYSGVPSRFSGSRSGTDFTLTISSLQPEDFATYYCQQGGYSLITFGQGTKVEIK",–,–,10 nM,–
